B1: parental 13C3 anti-amyloid beta antibody (murine IgG) (antibody, V domains shown)
VH: EVQLQQSGPEVVKPGVSVKISCKGSGYTFTDYAMHWVKQSPGKSLEWIGVISTKYGKTNYNPSFQGQATMTVDKSSSTAYMELASLKASDSAIYYCARGDDGYSWGQGTSVTVSS
VL: EIVMTQTPLSLPVSLGDRASISCRSGQSLVHSNGNTYLHWYLQKPGQSPKLLIYTVSNRFSGVPDRFSGSGSGSDFTLTISRVEAEDLGVYFCSQNTFVPWTFGGGTKLEIK
notes: The SPR text says only 'parental IgG' or 'parental antibody'; The scFv-IgG derives from the murine 13C3 antibody (mouse IgG1); also called parental IgG; parental antibody
B2: anti-Aβ scFv-IgG (Fc fusion)
scFv: SEIVMTQTPLSLPVSLGDRASISCRSGQSLVHSNGNTYLHWYLQKPGQSPKLLIYTVSNRFSGVPDRFSGSGSGSDFTLTISRVEAEDLGVYFCSQNTFVPWTFGGGTKLEIKRTSSGGGGSGGGGSGGGGSEVQLQQSGPEVVKPGVSVKISCKGSGYTFTDYAMHWVKQSPGKSLEWIGVISTKYGKTNYNPSFQGQATMTVDKSSSTAYMELASLKASDSAIYYCARGDDGYSWGQGTSVTVSSASTGGGGGGGGGSGVPRDCGCKPCICTVPEVSSVFIFPPKPKDVLTITLTPKVTCVVVDISKDDPEVQFSWFVDDVEVHTAQTQPREEQFASTFRSVSELPIMHQDWLNGKEFKCRVNSAAFPAPIEKTISKTKGRPKAPQVYTIPPPKEQMAKDKVSLTCMITDFFPEDITVEWQWNGQPAENYKNTQPIMDTDGSYFVYSKLNVQKSNWEAGNTFTCSVLHEGLHNHHTEKSLSHSPGSGSGSGSHHHHHH
notes: Disulfide-linked homodimer; For SPR the protein was expressed in Expi293 cells and purified by IMAC; also called silent scFv-IgG; AAV-scFv-IgG (vector-expressed form)

What was measured:
[1] = biological target: T1, Aβ1-42 fibrils (Aβ1-42 peptide, Bachem H-1368) (UniProt P05067 672-713); test: SPR (Biacore T200): Aβ1-42 fibrils immobilised on the sensor chip by amine coupling, antibody injected at 5-50 nM, global fit to a 1:1 binding model
T1 construct: domain: Aβ1-42; Fibrils were immobilized on the sensor chip by amine coupling, so this is a multimeric aggregate; also called fibrillar Aβ1-42; immobilized Aβ1-42 fibrils

[2] = biological target: T1, Aβ1-42 fibrils (Aβ1-42 peptide, Bachem …); test: SPR (Biacore T200), antibody flowed over amine-coupled Aβ1-42 fibrils, 1:1 fit, apparent KD
[3] = biological target: T1, Aβ1-42 fibrils (Aβ1-42 peptide, Bachem …); test: SPR (Biacore T200), scFv-IgG flowed over amine-coupled Aβ1-42 fibrils, 1:1 fit, apparent KD
[4] = biological target: T1, Aβ1-42 fibrils (Aβ1-42 peptide, Bachem …); test: SPR (Biacore T200): Aβ1-42 fibrils immobilised on the sensor chip by amine coupling, scFv-IgG injected at 5-50 nM, global fit to a 1:1 binding model

T1 sequence (P05067 672-713 limits assumed): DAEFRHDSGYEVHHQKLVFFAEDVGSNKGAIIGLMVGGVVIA

Row | Binder | Kd [1] | Kd [2] | Kd [3] | Kd [4]
1 | B1 | 0.132 nM | 0.13 nM | – | –
2 | B2 | – | – | 0.52 nM | 0.525 nM
